Measured values reported in patent US7033832.

Molecular target: chicken N-cadherin (expressed from pMiwcN vector on LN2 mouse L cell transfectants) (chicken) (UniProt P10288)
Assay: flow cytometry of LN2 cells stained with NCD2 and FITC secondary antibody

Chain of UniProt P10288 (P10288 165-912): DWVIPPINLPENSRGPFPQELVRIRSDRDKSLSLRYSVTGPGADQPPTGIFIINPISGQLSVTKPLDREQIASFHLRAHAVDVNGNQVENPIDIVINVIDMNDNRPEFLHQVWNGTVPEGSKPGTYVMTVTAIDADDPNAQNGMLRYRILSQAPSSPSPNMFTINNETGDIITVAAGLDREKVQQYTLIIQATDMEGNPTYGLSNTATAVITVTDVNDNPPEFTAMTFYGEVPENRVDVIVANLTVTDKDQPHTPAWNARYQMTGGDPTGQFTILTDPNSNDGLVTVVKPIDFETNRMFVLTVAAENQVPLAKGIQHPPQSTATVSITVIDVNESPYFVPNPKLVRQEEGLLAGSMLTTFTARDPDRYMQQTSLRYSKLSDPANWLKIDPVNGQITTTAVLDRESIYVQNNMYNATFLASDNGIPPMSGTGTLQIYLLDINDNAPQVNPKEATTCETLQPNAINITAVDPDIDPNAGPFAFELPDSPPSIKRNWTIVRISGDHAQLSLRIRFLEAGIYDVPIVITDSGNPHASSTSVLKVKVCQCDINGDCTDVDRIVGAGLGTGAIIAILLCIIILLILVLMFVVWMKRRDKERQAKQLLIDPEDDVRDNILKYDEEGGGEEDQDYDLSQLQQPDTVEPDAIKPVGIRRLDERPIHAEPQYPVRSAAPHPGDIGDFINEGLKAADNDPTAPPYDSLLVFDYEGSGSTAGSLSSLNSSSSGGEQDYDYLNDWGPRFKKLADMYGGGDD

mean channel fluorescence (mcf): 26.5 mcf
Substance: anti-chicken-N-Cadherin antibody (NCD2, Zymed, San Francisco, Calif.)
